Test results reported in US20240368267A1 (KODIAK SCIENCES, published 2024).

The binders below were run against T1, human IL-6 (human, UniProt P05231 30-212) (assay: SPR (Biacore T200), antibody from cell supernatant captured on Protein A, IL-6 flowed over, 37 C).
T1 construct: also called interleukin-6
Method: Those four positions were selected based on their tolerance for mutations as observed in bacterial and mammalian screens. […] These cultures were centrifuged and supernatants containing secreted antibodies were harvested and diluted in HBS-EP+ running buffer (1:20 ratio).
Antibodies were captured on a Protein A chip (GE) by injecting 1:20 cell supernatant dilutions at 10 μL/min for 60 seconds. […] The sensor chip was regenerated by a 60 seconds injection of 10 mM Glycine pH 1.7 at the flow rate of […]. […] For this setup, 1 μg/mL of purified antibody was injected over a Protein A chip at 10 μL/min for 25 seconds. […] The sensor chip was regenerated by a 60 seconds injection of 10 mM Glycine pH 1.7 at flow rate of 50 μL/min. Data analysis for supernatant and purified samples were performed using BIAevaluation software (GE). All sensorgrams were double reference subtracted and fit using a 1:1 Langmuir binding model.

T1 sequence (P05231 30-212 limits assumed): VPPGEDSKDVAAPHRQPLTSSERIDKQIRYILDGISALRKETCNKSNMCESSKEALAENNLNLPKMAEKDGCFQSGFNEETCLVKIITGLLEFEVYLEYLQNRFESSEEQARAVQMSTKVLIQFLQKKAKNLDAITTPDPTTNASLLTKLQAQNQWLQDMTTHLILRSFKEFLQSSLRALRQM

Binder | Kd [nM] | koff [s⁻¹] | kon [M⁻¹ s⁻¹]
anti-IL-6 antibody, heavy chain I51W, G66D / light chain WT (antibody, human IgG1, V domains shown, Derived as m2; Engineered human IgG1) VH: EVQLVESGGGLVQPGGSLRLSCAASGFTFSPFAMSWVRQAPGKGLEWVAKWSPGGSWTYYSDTVTDRFTFSLDTSKSTAYLQMNSLRAEDTAVYYCARQLWGYYALDIWGQGTLVTVSS VL: DIQLTQSPSSLSASVGDRVTITCSASISVSYMYWYQQKPGKAPKLLIYDMSNLASGVPSRFSGSGSGTDFTLTISSLQPEDFATYYCMQWSGYPYTFGQGTKVEIK | 4.93 | 0.00943 | 1.91e+06
anti-IL-6 antibody, heavy chain S35E, G66D / light chain WT (antibody, human IgG1, V domains shown, Derived as m2; Engineered human IgG1) VH: EVQLVESGGGLVQPGGSLRLSCAASGFTFSPFAMEWVRQAPGKGLEWVAKISPGGSWTYYSDTVTDRFTFSLDTSKSTAYLQMNSLRAEDTAVYYCARQLWGYYALDIWGQGTLVTVSS VL: DIQLTQSPSSLSASVGDRVTITCSASISVSYMYWYQQKPGKAPKLLIYDMSNLASGVPSRFSGSGSGTDFTLTISSLQPEDFATYYCMQWSGYPYTFGQGTKVEIK | 0.582 | 0.000509 | 874000
anti-IL-6 antibody, heavy chain S35F, G66D / light chain WT (antibody, human IgG1, V domains shown, Derived as m2; Engineered human IgG1) VH: EVQLVESGGGLVQPGGSLRLSCAASGFTFSPFAMFWVRQAPGKGLEWVAKISPGGSWTYYSDTVTDRFTFSLDTSKSTAYLQMNSLRAEDTAVYYCARQLWGYYALDIWGQGTLVTVSS VL: DIQLTQSPSSLSASVGDRVTITCSASISVSYMYWYQQKPGKAPKLLIYDMSNLASGVPSRFSGSGSGTDFTLTISSLQPEDFATYYCMQWSGYPYTFGQGTKVEIK | 0.749 | 0.00119 | 1.59e+06
anti-IL-6 antibody, heavy chain I51Y, G66D / light chain WT (antibody, human IgG1, V domains shown, Derived as m2; Engineered human IgG1) VH: EVQLVESGGGLVQPGGSLRLSCAASGFTFSPFAMSWVRQAPGKGLEWVAKYSPGGSWTYYSDTVTDRFTFSLDTSKSTAYLQMNSLRAEDTAVYYCARQLWGYYALDIWGQGTLVTVSS VL: DIQLTQSPSSLSASVGDRVTITCSASISVSYMYWYQQKPGKAPKLLIYDMSNLASGVPSRFSGSGSGTDFTLTISSLQPEDFATYYCMQWSGYPYTFGQGTKVEIK | 3.45 | 0.0051 | 1.48e+06
anti-IL-6 antibody, heavy chain S35W, G66D / light chain WT (antibody, human IgG1, V domains shown, Derived as m2; Engineered human IgG1) VH: EVQLVESGGGLVQPGGSLRLSCAASGFTFSPFAMWWVRQAPGKGLEWVAKISPGGSWTYYSDTVTDRFTFSLDTSKSTAYLQMNSLRAEDTAVYYCARQLWGYYALDIWGQGTLVTVSS VL: DIQLTQSPSSLSASVGDRVTITCSASISVSYMYWYQQKPGKAPKLLIYDMSNLASGVPSRFSGSGSGTDFTLTISSLQPEDFATYYCMQWSGYPYTFGQGTKVEIK | 23.5 | 0.00217 | 92300
anti-IL-6 antibody, heavy chain S35Y, G66D / light chain WT (antibody, human IgG1, V domains shown, Derived as m2; Engineered human IgG1) VH: EVQLVESGGGLVQPGGSLRLSCAASGFTFSPFAMYWVRQAPGKGLEWVAKISPGGSWTYYSDTVTDRFTFSLDTSKSTAYLQMNSLRAEDTAVYYCARQLWGYYALDIWGQGTLVTVSS VL: DIQLTQSPSSLSASVGDRVTITCSASISVSYMYWYQQKPGKAPKLLIYDMSNLASGVPSRFSGSGSGTDFTLTISSLQPEDFATYYCMQWSGYPYTFGQGTKVEIK | 0.503 | 0.000551 | 1.1e+06
anti-IL-6 antibody, heavy chain S35K, G66D / light chain WT (antibody, human IgG1, V domains shown, Derived as m2; Engineered human IgG1) VH: EVQLVESGGGLVQPGGSLRLSCAASGFTFSPFAMKWVRQAPGKGLEWVAKISPGGSWTYYSDTVTDRFTFSLDTSKSTAYLQMNSLRAEDTAVYYCARQLWGYYALDIWGQGTLVTVSS VL: DIQLTQSPSSLSASVGDRVTITCSASISVSYMYWYQQKPGKAPKLLIYDMSNLASGVPSRFSGSGSGTDFTLTISSLQPEDFATYYCMQWSGYPYTFGQGTKVEIK | 0.557 | 0.000949 | 1.7e+06
anti-IL-6 antibody, heavy chain S35P, G66D / light chain WT (antibody, human IgG1, V domains shown, Derived as m2; Engineered human IgG1) VH: EVQLVESGGGLVQPGGSLRLSCAASGFTFSPFAMPWVRQAPGKGLEWVAKISPGGSWTYYSDTVTDRFTFSLDTSKSTAYLQMNSLRAEDTAVYYCARQLWGYYALDIWGQGTLVTVSS VL: DIQLTQSPSSLSASVGDRVTITCSASISVSYMYWYQQKPGKAPKLLIYDMSNLASGVPSRFSGSGSGTDFTLTISSLQPEDFATYYCMQWSGYPYTFGQGTKVEIK | 11.9 | 0.00123 | 103000

Stronger by Kd, values ahead:

Kd [nM] | koff [s⁻¹] | kon [M⁻¹ s⁻¹] | Binder
0.414 | 0.000469 | 1.13e+06 | anti-IL-6 antibody, heavy chain S35V, G66D / light chain WT (antibody, human IgG1, V domains shown, Derived as m2; Engineered human IgG1) VH: EVQLVESGGGLVQPGGSLRLSCAASGFTFSPFAMVWVRQAPGKGLEWVAKISPGGSWTYYSDTVTDRFTFSLDTSKSTAYLQMNSLRAEDTAVYYCARQLWGYYALDIWGQGTLVTVSS VL: DIQLTQSPSSLSASVGDRVTITCSASISVSYMYWYQQKPGKAPKLLIYDMSNLASGVPSRFSGSGSGTDFTLTISSLQPEDFATYYCMQWSGYPYTFGQGTKVEIK
0.334 | 0.000376 | 1.12e+06 | anti-IL-6 antibody, heavy chain S35I, G66D / light chain WT (antibody, human IgG1, V domains shown, Derived as m2; Engineered human IgG1) VH: EVQLVESGGGLVQPGGSLRLSCAASGFTFSPFAMIWVRQAPGKGLEWVAKISPGGSWTYYSDTVTDRFTFSLDTSKSTAYLQMNSLRAEDTAVYYCARQLWGYYALDIWGQGTLVTVSS VL: DIQLTQSPSSLSASVGDRVTITCSASISVSYMYWYQQKPGKAPKLLIYDMSNLASGVPSRFSGSGSGTDFTLTISSLQPEDFATYYCMQWSGYPYTFGQGTKVEIK
0.321 | 0.000641 | 2e+06 | anti-IL-6 antibody, heavy chain S35D, G66D / light chain WT (antibody, human IgG1, V domains shown, Derived as m2; Engineered human IgG1) VH: EVQLVESGGGLVQPGGSLRLSCAASGFTFSPFAMDWVRQAPGKGLEWVAKISPGGSWTYYSDTVTDRFTFSLDTSKSTAYLQMNSLRAEDTAVYYCARQLWGYYALDIWGQGTLVTVSS VL: DIQLTQSPSSLSASVGDRVTITCSASISVSYMYWYQQKPGKAPKLLIYDMSNLASGVPSRFSGSGSGTDFTLTISSLQPEDFATYYCMQWSGYPYTFGQGTKVEIK
0.315 | 0.000351 | 1.11e+06 | anti-IL-6 antibody, heavy chain S35L, G66D / light chain WT (antibody, human IgG1, V domains shown, Derived as m2; Engineered human IgG1) VH: EVQLVESGGGLVQPGGSLRLSCAASGFTFSPFAMLWVRQAPGKGLEWVAKISPGGSWTYYSDTVTDRFTFSLDTSKSTAYLQMNSLRAEDTAVYYCARQLWGYYALDIWGQGTLVTVSS VL: DIQLTQSPSSLSASVGDRVTITCSASISVSYMYWYQQKPGKAPKLLIYDMSNLASGVPSRFSGSGSGTDFTLTISSLQPEDFATYYCMQWSGYPYTFGQGTKVEIK
0.302 | 0.000395 | 1.31e+06 | anti-IL-6 antibody, heavy chain S35Q, G66D / light chain WT (antibody, human IgG1, V domains shown, Derived as m2; Engineered human IgG1) VH: EVQLVESGGGLVQPGGSLRLSCAASGFTFSPFAMQWVRQAPGKGLEWVAKISPGGSWTYYSDTVTDRFTFSLDTSKSTAYLQMNSLRAEDTAVYYCARQLWGYYALDIWGQGTLVTVSS VL: DIQLTQSPSSLSASVGDRVTITCSASISVSYMYWYQQKPGKAPKLLIYDMSNLASGVPSRFSGSGSGTDFTLTISSLQPEDFATYYCMQWSGYPYTFGQGTKVEIK
0.3 | 0.000494 | 1.65e+06 | anti-IL-6 antibody, heavy chain S35A, G66D / light chain WT (antibody, human IgG1, V domains shown, Derived as m2; Engineered human IgG1) VH: EVQLVESGGGLVQPGGSLRLSCAASGFTFSPFAMAWVRQAPGKGLEWVAKISPGGSWTYYSDTVTDRFTFSLDTSKSTAYLQMNSLRAEDTAVYYCARQLWGYYALDIWGQGTLVTVSS VL: DIQLTQSPSSLSASVGDRVTITCSASISVSYMYWYQQKPGKAPKLLIYDMSNLASGVPSRFSGSGSGTDFTLTISSLQPEDFATYYCMQWSGYPYTFGQGTKVEIK
0.297 | 0.000409 | 1.38e+06 | anti-IL-6 antibody, heavy chain S35T, G66D / light chain WT (antibody, human IgG1, V domains shown, Derived as m2; Engineered human IgG1) VH: EVQLVESGGGLVQPGGSLRLSCAASGFTFSPFAMTWVRQAPGKGLEWVAKISPGGSWTYYSDTVTDRFTFSLDTSKSTAYLQMNSLRAEDTAVYYCARQLWGYYALDIWGQGTLVTVSS VL: DIQLTQSPSSLSASVGDRVTITCSASISVSYMYWYQQKPGKAPKLLIYDMSNLASGVPSRFSGSGSGTDFTLTISSLQPEDFATYYCMQWSGYPYTFGQGTKVEIK
0.284 | 0.00036 | 1.27e+06 | anti-IL-6 antibody, heavy chain S35G, G66D / light chain WT (antibody, human IgG1, V domains shown, Derived as m2; Engineered human IgG1) VH: EVQLVESGGGLVQPGGSLRLSCAASGFTFSPFAMGWVRQAPGKGLEWVAKISPGGSWTYYSDTVTDRFTFSLDTSKSTAYLQMNSLRAEDTAVYYCARQLWGYYALDIWGQGTLVTVSS VL: DIQLTQSPSSLSASVGDRVTITCSASISVSYMYWYQQKPGKAPKLLIYDMSNLASGVPSRFSGSGSGTDFTLTISSLQPEDFATYYCMQWSGYPYTFGQGTKVEIK
0.221 | 0.000401 | 1.81e+06 | anti-IL-6 antibody, heavy chain T63F, G66D / light chain WT (antibody, human IgG1, V domains shown, Derived as m2; Engineered human IgG1) VH: EVQLVESGGGLVQPGGSLRLSCAASGFTFSPFAMSWVRQAPGKGLEWVAKISPGGSWTYYSDFVTDRFTFSLDTSKSTAYLQMNSLRAEDTAVYYCARQLWGYYALDIWGQGTLVTVSS VL: DIQLTQSPSSLSASVGDRVTITCSASISVSYMYWYQQKPGKAPKLLIYDMSNLASGVPSRFSGSGSGTDFTLTISSLQPEDFATYYCMQWSGYPYTFGQGTKVEIK
0.204 | 0.000392 | 1.92e+06 | anti-IL-6 antibody, heavy chain T63D, G66D / light chain WT (antibody, human IgG1, V domains shown, Derived as m2; Engineered human IgG1) VH: EVQLVESGGGLVQPGGSLRLSCAASGFTFSPFAMSWVRQAPGKGLEWVAKISPGGSWTYYSDDVTDRFTFSLDTSKSTAYLQMNSLRAEDTAVYYCARQLWGYYALDIWGQGTLVTVSS VL: DIQLTQSPSSLSASVGDRVTITCSASISVSYMYWYQQKPGKAPKLLIYDMSNLASGVPSRFSGSGSGTDFTLTISSLQPEDFATYYCMQWSGYPYTFGQGTKVEIK
0.177 | 0.000496 | 2.8e+06 | anti-IL-6 antibody, heavy chain T63A, G66D / light chain WT (antibody, human IgG1, V domains shown, Derived as m2; Engineered human IgG1) VH: EVQLVESGGGLVQPGGSLRLSCAASGFTFSPFAMSWVRQAPGKGLEWVAKISPGGSWTYYSDAVTDRFTFSLDTSKSTAYLQMNSLRAEDTAVYYCARQLWGYYALDIWGQGTLVTVSS VL: DIQLTQSPSSLSASVGDRVTITCSASISVSYMYWYQQKPGKAPKLLIYDMSNLASGVPSRFSGSGSGTDFTLTISSLQPEDFATYYCMQWSGYPYTFGQGTKVEIK
